Measurements reported in patent EP2100620A1.

Assays:
[1] = target: HLA receptor A11 (HLA-A*1101), purified from transfected human cells (human); test: competitive binding assay: unlabeled test peptide against 5 nM 125I-labeled standard peptide on purified HLA with 1 uM b2m, size exclusion HPLC, 68 h incubation
[2] = target: HLA receptor A1 (HLA-A*0101), purified from transfected human cells (human); test: competitive binding assay: unlabeled test peptide against 5 nM 125I-labeled standard peptide on purified HLA with 1 uM b2m, size exclusion HPLC, 51 h incubation; details: remark: other sources report otherwise

In the case of HTMLCMCCK (modifications not checked) [… (SEQ ID NO:122), HPV strain 18 E7 59-67], the IC50 [1] is reported as 67 nM.

Work on ISEYRHYCY (modifications not checked) [… (SEQ ID NO:70), HPV 16 E6 peptide] yielded an IC50 [2] of 49 nM.
